Data: patent US20150147274A1 (CANCER RESEARCH TECHNOLOGY, published 2015)

B1: 112_H2 (scFv)
scFv: QMQLVQSGAEVKKPGAPVKVSCKVSGYTFTDYYMHWVQQAPGKGLEWMGLVDPEDGETIYAEKFQGRVTITADTSTDTAYMELSSLRSEDTAVYYCATDATTPYWGMQVWGQGTLVTVSSLEGGGGSGGGGSGGGASDIQMTQSPSSLSASVGDRVTITCQASQDISNYLNWYQQKPGRAPKVLIYDASNLETGVPSRFSGSGSGTEFTLTISNLRPDDFATYYCQQGDSFPLTFGGGTKVEIK
notes: not shown: 6xHis/tri-FLAG tags
B2: 107_A2 (scFv)
scFv: QMQLVQSGAEVKKPGAPVKVSCKVSGYTFTDYYMHWVQQAPGKGLEWMGLVDPEDGETIYAEKFQGRVTITADTSTDTAYMELSSLRSEDTAVYYCATDATTPYWGMQSWGQGTLVTVSSLEGGGGSGGGGSGGGASDIQMTQSPSSLSASVGDRVTITCQASQDISNYLNWYQQKPGRAPKVLIYDASNLETGVPSRFSGSGSGTEFTLTISNLRPDDFATYYCQQGDSFPLTFGGGTKVEIK
notes: as for B1
B3: 107_A3 (scFv)
scFv: QMQLVQSGAEVKKPGAPVKVSCKVSGYTFTDYYMHWVQQAPGKGLEWMGLVDPEDGETIYAEKFQGRVTITADTSTDTAYMELSSLRSEDTAVYYCATDATTAYWGMQKWGQGTLVTVSSLEGGGGSGGGGSGGGASDIQMTQSPSSLSASVGDRVTITCQASQDISNYLNWYQQKPGRAPKVLIYDASNLETGVPSRFSGSGSGTEFTLTISNLRPDDFATYYCQQGDSFPLTFGGGTKVEIK
notes: as for B1
B4: 107_A4 (scFv)
scFv: QMQLVQSGAEVKKPGAPVKVSCKVSGYTFTDYYMHWVQQAPGKGLEWMGLVDPEDGETIYAEKFQGRVTITADTSTDTAYMELSSLRSEDTAVYYCATDATTPYWFPYHWGQGTLVTVSSLEGGGGSGGGGSGGGASDIQMTQSPSSLSASVGDRVTITCQASQDISNYLNWYQQKPGRAPKVLIYDASNLETGVPSRFSGSGSGTEFTLTISNLRPDDFATYYCQQGDSFPLTFGGGTKVEIK
notes: as for B1
B5: 107_A5 (scFv)
scFv: QMQLVQSGAEVKKPGAPVKVSCKVSGYTFTDYYMHWVQQAPGKGLEWMGLVDPEDGETIYAEKFQGRVTITADTSTDTAYMELSSLRSEDTAVYYCATDATTPYWGMSKWGQGTLVTVSSLEGGGGSGGGGSGGGASDIQMTQSPSSLSASVGDRVTITCQASQDISNYLNWYQQKPGRAPKVLIYDASNLETGVPSRFSGSGSGTEFTLTISNLRPDDFATYYCQQGDSFPLTFGGGTKVEIK
notes: as for B1
B6: 107_A6 (scFv)
scFv: QMQLVQSGAEVKKPGAPVKVSCKVSGYTFTDYYMHWVQQAPGKGLEWMGLVDPEDGETIYAEKFQGRVTITADTSTDTAYMELSSLRSEDTAVYYCATDATTPYWTPFVWGQGTLVTVSSLEGGGGSGGGGSGGGASDIQMTQSPSSLSASVGDRVTITCQASQDISNYLNWYQQKPGRAPKVLIYDASNLETGVPSRFSGSGSGTEFTLTISNLRPDDFATYYCQQGDSFPLTFGGGTKVEIK
notes: as for B1
B7: 107_A9 (scFv)
scFv: QMQLVQSGAEVKKPGAPVKVSCKVSGYTFTDYYMHWVQQAPGKGLEWMGLVDPEDGETIYAEKFQGRVTITADTSTDTAYMELSSLRSEDTAVYYCATDATTPYWGMMTWGQGTLVTVSSLEGGGGSGGGGSGGGASDIQMTQSPSSLSASVGDRVTITCQASQDISNYLNWYQQKPGRAPKVLIYDASNLETGVPSRFSGSGSGTEFTLTISNLRPDDFATYYCQQGDSFPLTFGGGTKVEIK
notes: as for B1
B8: 107_A10 (scFv)
scFv: QMQLVQSGAEVKKPGAPVKVSCKVSGYTFTDYYMHWVQQAPGKGLEWMGLVDPEDGETIYAEKFQGRVTITADTSTDTAYMELSSLRSEDTAVYYCATDATTPYWGMQEWGQGTLVTVSSLEGGGGSGGGGSGGGASDIQMTQSPSSLSASVGDRVTITCQASQDISNYLNWYQQKPGRAPKVLIYDASNLETGVPSRFSGSGSGTEFTLTISNLRPDDFATYYCQQGDSFPLTFGGGTKVEIK
notes: as for B1
B9: 107_A11 (scFv)
scFv: QMQLVQSGAEVKKPGAPVKVSCKVSGYTFTDYYMHWVQQAPGKGLEWMGLVDPEDGETIYAEKFQGRVTITADTSTDTAYMELSSLRSEDTAVYYCATDATTPYWGMAWWGQGTLVTVSSLEGGGGSGGGGSGGGASDIQMTQSPSSLSASVGDRVTITCQASQDISNYLNWYQQKPGRAPKVLIYDASNLETGVPSRFSGSGSGTEFTLTISNLRPDDFATYYCQQGDSFPLTFGGGTKVEIK
notes: as for B1
B10: 107_A12 (scFv)
scFv: QMQLVQSGAEVKKPGAPVKVSCKVSGYTFTDYYMHWVQQAPGKGLEWMGLVDPEDGETIYAEKFQGRVTITADTSTDTAYMELSSLRSEDTAVYYCATDATTPYWWMAKWGQGTLVTVSSLEGGGGSGGGGSGGGASDIQMTQSPSSLSASVGDRVTITCQASQDISNYLNWYQQKPGRAPKVLIYDASNLETGVPSRFSGSGSGTEFTLTISNLRPDDFATYYCQQGDSFPLTFGGGTKVEIK
notes: as for B1
B11: 107_B1 (scFv)
scFv: QMQLVQSGAEVKKPGAPVKVSCKVSGYTFTDYYMHWVQQAPGKGLEWMGLVDPEDGETIYAEKFQGRVTITADTSTDTAYMELSSLRSEDTAVYYCATDATHIYWNMDIWGQGTLVTVSSLEGGGGSGGGGSGGGASDIQMTQSPSSLSASVGDRVTITCQASQDISNYLNWYQQKPGRAPKVLIYDASNLETGVPSRFSGSGSGTEFTLTISNLRPDDFATYYCQQGDSFPLTFGGGTKVEIK
notes: as for B1
B12: 107_B2 (scFv)
scFv: QMQLVQSGAEVKKPGAPVKVSCKVSGYTFTDYYMHWVQQAPGKGLEWMGLVDPEDGETIYAEKFQGRVTITADTSTDTAYMELSSLRSEDTAVYYCATDATTPYWGMQMWGQGTLVTVSSLEGGGGSGGGGSGGGASDIQMTQSPSSLSASVGDRVTITCQASQDISNYLNWYQQKPGRAPKVLIYDASNLETGVPSRFSGSGSGTEFTLTISNLRPDDFATYYCQQGDSFPLTFGGGTKVEIK
notes: as for B1
B13: 107_B3 (scFv)
scFv: QMQLVQSGAEVKKPGAPVKVSCKVSGYTFTDYYMHWVQQAPGKGLEWMGLVDPEDGETIYAEKFQGRVTITADTSTDTAYMELSSLRSEDTAVYYCATDATTPYWGMKMWGQGTLVTVSSLEGGGGSGGGGSGGGASDIQMTQSPSSLSASVGDRVTITCQASQDISNYLNWYQQKPGRAPKVLIYDASNLETGVPSRFSGSGSGTEFTLTISNLRPDDFATYYCQQGDSFPLTFGGGTKVEIK
notes: as for B1
B14: 107_B4 (scFv)
scFv: QMQLVQSGAEVKKPGAPVKVSCKVSGYTFTDYYMHWVQQAPGKGLEWMGLVDPEDGETIYAEKFQGRVTITADTSTDTAYMELSSLRSEDTAVYYCATDATTPYWFPNVWGQGTLVTVSSLEGGGGSGGGGSGGGASDIQMTQSPSSLSASVGDRVTITCQASQDISNYLNWYQQKPGRAPKVLIYDASNLETGVPSRFSGSGSGTEFTLTISNLRPDDFATYYCQQGDSFPLTFGGGTKVEIK
notes: as for B1
B15: 107_B5 (scFv)
scFv: QMQLVQSGAEVKKPGAPVKVSCKVSGYTFTDYYMHWVQQAPGKGLEWMGLVDPEDGETIYAEKFQGRVTITADTSTDTAYMELSSLRSEDTAVYYCATDATTPYWGMQIWGQGTLVTVSSLEGGGGSGGGGSGGGASDIQMTQSPSSLSASVGDRVTITCQASQDISNYLNWYQQKPGRAPKVLIYDASNLETGVPSRFSGSGSGTEFTLTISNLRPDDFATYYCQQGDSFPLTFGGGTKVEIK
notes: as for B1
B16: 107_B6 (scFv)
scFv: QMQLVQSGAEVKKPGAPVKVSCKVSGYTFTDYYMHWVQQAPGKGLEWMGLVDPEDGETIYAEKFQGRVTITADTSTDTAYMELSSLRSEDTAVYYCATDATTPYWGMQKWGQGTLVTVSSLEGGGGSGGGGSGGGASDIQMTQSPSSLSASVGDRVTITCQASQDISNYLNWYQQKPGRAPKVLIYDASNLETGVPSRFSGSGSGTEFTLTISNLRPDDFATYYCQQGDSFPLTFGGGTKVEIK
notes: as for B1
B17: 107_B7 (scFv)
scFv: QMQLVQSGAEVKKPGAPVKVSCKVSGYTFTDYYMHWVQQAPGKGLEWMGLVDPEDGETIYAEKFQGRVTITADTSTDTAYMELSSLRSEDTAVYYCATDATTPYWCMRAWGQGTLVTVSSLEGGGGSGGGGSGGGASDIQMTQSPSSLSASVGDRVTITCQASQDISNYLNWYQQKPGRAPKVLIYDASNLETGVPSRFSGSGSGTEFTLTISNLRPDDFATYYCQQGDSFPLTFGGGTKVEIK
notes: as for B1
B18: 107_B8 (scFv)
scFv: QMQLVQSGAEVKKPGAPVKVSCKVSGYTFTDYYMHWVQQAPGKGLEWMGLVDPEDGETIYAEKFQGRVTITADTSTDTAYMELSSLRSEDTAVYYCATDATTPYWGMAEWGQGTLVTVSSLEGGGGSGGGGSGGGASDIQMTQSPSSLSASVGDRVTITCQASQDISNYLNWYQQKPGRAPKVLIYDASNLETGVPSRFSGSGSGTEFTLTISNLRPDDFATYYCQQGDSFPLTFGGGTKVEIK
notes: as for B1
B19: 107_B10 (scFv)
scFv: QMQLVQSGAEVKKPGAPVKVSCKVSGYTFTDYYMHWVQQAPGKGLEWMGLVDPEDGETIYAEKFQGRVTITADTSTDTAYMELSSLRSEDTAVYYCATDATTPYWGMRVWGQGTLVTVSSLEGGGGSGGGGSGGGASDIQMTQSPSSLSASVGDRVTITCQASQDISNYLNWYQQKPGRAPKVLIYDASNLETGVPSRFSGSGSGTEFTLTISNLRPDDFATYYCQQGDSFPLTFGGGTKVEIK
notes: as for B1
B20: 107_B11 (scFv)
scFv: QMQLVQSGAEVKKPGAPVKVSCKVSGYTFTDYYMHWVQQAPGKGLEWMGLVDPEDGETIYAEKFQGRVTITADTSTDTAYMELSSLRSEDTAVYYCATDATTPYWGMAMWGQGTLVTVSSLEGGGGSGGGGSGGGASDIQMTQSPSSLSASVGDRVTITCQASQDISNYLNWYQQKPGRAPKVLIYDASNLETGVPSRFSGSGSGTEFTLTISNLRPDDFATYYCQQGDSFPLTFGGGTKVEIK
notes: as for B1

Target: T1, MET928 (cMET protein derived from construct 25-928) (human, UniProt P08581 25-928)
T1 construct: MET ectodomain, residues 1-24 are the leader; produced in Lec 8 cells; background text says the ectodomain is furin-cleaved into alpha (25-307) and beta chains; biotinylated form used in selections; also called MET928 extracellular domain; Met extracellular domain
T1 sequence (P08581 25-928): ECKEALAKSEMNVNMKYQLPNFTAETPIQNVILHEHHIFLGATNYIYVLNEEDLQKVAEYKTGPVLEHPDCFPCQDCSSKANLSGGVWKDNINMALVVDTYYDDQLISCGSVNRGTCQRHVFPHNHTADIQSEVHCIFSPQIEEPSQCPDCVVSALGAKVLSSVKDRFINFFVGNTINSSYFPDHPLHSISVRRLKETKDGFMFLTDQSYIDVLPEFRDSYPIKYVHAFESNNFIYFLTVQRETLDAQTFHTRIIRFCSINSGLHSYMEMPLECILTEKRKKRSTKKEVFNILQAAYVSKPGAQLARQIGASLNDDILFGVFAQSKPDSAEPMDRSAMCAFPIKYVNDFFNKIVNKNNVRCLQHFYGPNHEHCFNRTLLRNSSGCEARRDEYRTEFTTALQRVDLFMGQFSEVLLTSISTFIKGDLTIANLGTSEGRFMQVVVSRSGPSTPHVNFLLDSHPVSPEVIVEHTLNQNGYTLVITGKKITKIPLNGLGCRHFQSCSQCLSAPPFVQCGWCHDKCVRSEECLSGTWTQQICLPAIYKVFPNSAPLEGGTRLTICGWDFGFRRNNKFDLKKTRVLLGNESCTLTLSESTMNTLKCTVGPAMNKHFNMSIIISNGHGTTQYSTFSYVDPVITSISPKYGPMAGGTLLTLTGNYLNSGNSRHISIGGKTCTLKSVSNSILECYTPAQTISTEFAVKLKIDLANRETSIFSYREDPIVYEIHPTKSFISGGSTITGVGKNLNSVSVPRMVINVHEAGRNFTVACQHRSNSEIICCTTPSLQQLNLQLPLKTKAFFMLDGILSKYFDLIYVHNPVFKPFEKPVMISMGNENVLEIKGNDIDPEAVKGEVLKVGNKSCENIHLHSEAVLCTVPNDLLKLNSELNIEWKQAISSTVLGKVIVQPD
Assay: ELISA, soluble scFv

Row | binding result | Binder
1 | binds | B1
2 | binds | B2
3 | binds | B3
4 | binds | B4
5 | binds | B5
6 | binds | B6
7 | binds | B7
8 | binds | B8
9 | binds | B9
10 | binds | B10
11 | binds | B11
12 | binds | B12
13 | binds | B13
14 | binds | B14
15 | binds | B15
16 | binds | B16
17 | binds | B17
18 | binds | B18
19 | binds | B19
20 | binds | B20
